A short description of the series: yeast display, Sf9 membrane polyspecificity reagent, FACS + sequencing; frameworks hold sequencing errors. The gist of the method:
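Polyreactivity labels are assigned by the sorting gate from which each nanobody was recovered. The gates were low and high (top ~1%), set on anti-HA fluorescence for expression and streptavidin fluorescence for reagent binding. Before sorting, galactose-induced (36–48 hours) yeast display cells were stained for 1 hour at 4 °C with 10% biotinylated, detergent-solubilized Sf9 membrane reagent.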
Regarding “QVQLVESGGGLVQAGGSLRLSCAASGSIFYTYTMGWYRQAPGKERELVAAISWSGGSTYYADSVKGRFTISRDNAKNTVYLQMISLKPEDTAVYYCAAYGTGYYGYDYWGQGTQVTVSS”, the “polyreactivity (PSR sort gate)” value was “low polyreactivity”.
Consider “QVQLVESGGGLVQAGGSLRLSCAASGSIFWPNSMGWYRQAPGKERELVAAISWGTGSTYYADSVKGRFTISRDNAKNTVYLQMNSLKPEDTAVYYCAADGAYLDPYYDYWGQGTQVTVSS”, for which the “polyreactivity (PSR sort gate)” value is “low polyreactivity”.
Take “QVQHDQSGGGLVQAGGSLRLSCAASGRTFKPYVMGRYREAPGKERELVAAISSRGDITYYADSVKGRFTITRDNAKNTVYLQMNSLKPEDTAVYYCNAGPAVRSAYSTPYYDYWGQGTQVTVSS”: the “polyreactivity (PSR sort gate)” value is “low polyreactivity”.
For “QVQLVESGGGLDQAGGSLRLSCAASGYTFVGNAMGWYRQAPGKERELVAAISRSGGRTYYADSVKGRFTISRDNAKYTVYLQMNSLKPEDTAVYYCAKQPGSGPYYWGQGTQVTVSS”, the “polyreactivity (PSR sort gate)” value is on record as “high polyreactivity”.
Regarding “QVQLVESGGGLVQAGGSLRLSCAASGFIFNAYAMGWYRQAPGKERELVAAITFRTTSTYYADSVKGRFTISRDNAKNTVYLQMNSLKPEDTAVYYCAALWIYSGWRYDYWGQGTQVTVSS”, the “polyreactivity (PSR sort gate)” value is “high polyreactivity”.
For “QVQLVESGGGLVQAGGSLRLSCAASGRTVSGYSMGWYIQAPGKERELVARITSGYSTNYADSVKWRFTISRDNAKNTVYLQMNCMKPEDTAVYYCAADRVWAFWTYGYWGQGTQVTVSS” the value was “low polyreactivity”; for “QVQLVESGGGLVQAGGSLRLSCAASGSTFTINVMGWYRQAPGKERELVAAINGGGRTNYADSVKGRFTFSRDNAKNTVYLQMNSLKPEDTAVYYCAADGLSHVRQMDYWGQGTQVTVSS”, “low polyreactivity”.
The same measure for “QVQLVESGGGLVQAGGSLRLSCAASGSTFKRYAMGWYRQAPGKERELVATINSGTSTNYADSVKGRFTISRDNAKNTVYLEMNSLKPEETAVYYCAKSFRRSVGGYGYDYWGQGTQVSVSS”: “low polyreactivity”; for “QVQLVESGGGLVQAGGSLSLSCAAYGSTFLRNAMGWYRQAPGKKGSWVATISYDGDSTYYADSVKGRFTISRDNAKNTVYLQMYSLKPEDTAVYYCAASYSLTFWDKDDYWGQGTQVTVSS”: “low polyreactivity”; for “QDQLVESGGCLVQAGGSHRLSSAASGIIIWYNTMGRYRQAPGKEREFFARISRRVGSTYYADSVKGRFTISRDNAKNTVYLQMNSLKPEDTAVYYCNRTRYRSFHYDYWGQGTKVTVSS”: “high polyreactivity”.
In the case of “QVQLVESRGGLVQAGGSLRLSFAASGIIFADYAMGWYRQAPGKERELVAAISSGDSTYYADSVKGRFTISRDNAKNTVYLQMNSLKPEDTAVYYCAARLYRNKYRIAKMNYWGQGTQVTVSS”, the “polyreactivity (PSR sort gate)” value is listed as “high polyreactivity”.
On to “QVQLVESGGGIVQAGGRLRLSCAASGRTSAVNAMVWYRQAPGKERELVAAITKSGGRTYYADSEKGRFTISRDNAKNTVYLQMNSLKPEDTAVYYCATSLLSRYGMDYWGQGTQVTVSS”, for which the “polyreactivity (PSR sort gate)” value was “high polyreactivity”.
Regarding “QVQLVESGGGLVQAGGSLRLSCAASGYIFSYYAMGWNRPAPGKERELVATISSGGSTNYADSVKGRFTISRDNAKNTVYLQMNSLKPEDTAVYYCAATIGHNGFYYWGQGTLVTVSS”, the “polyreactivity (PSR sort gate)” value is given as “low polyreactivity”.
The same measure for “QVQLVESGGGLVQAGGSLRLSCAASGITFWRNAMGWYRQAPGKESELVAAISWSVGRTYYADSVKGRFTISRDNAKNTVYLQMNSLKPEDTAFYYCIARWRSGPRAYDYWGQGTQVSVSS”: “high polyreactivity”.
The same measure for “QVQLVESGGGLVQAGGSLRLSCAPSGSIYDDYAMGWYRQAPGKERELVAAISSSGTSTYYADSVKGRFTISRDNAKNTVYLQMIRLKPEDTAGYYCAARSAILKSGYLMDYWGQGTLVTVSS”: “low polyreactivity”; for “QVQLQEGGGGQVQAGGSLRLSCAASGYITNGDVMGWSRQAPGEERELVASSGLDATTNYADSVKGRFTISRDNAKMTVYLQMNSLKPEDTAVYYCAADVGSGVLCGYWGQGTQMTVSS”: “high polyreactivity”.
The same measure for “QVQLVESGGGLVQAGGSLRLSCAASGSTFRGYAMGWYRQAPGKEREFVAAISRRGGTTYYADSVKGRFTISRDNAKNTVYLQMNSLKPEDTAVYYCNKVYYQHYLAFDYWGQGTQVTVSS”: “high polyreactivity”; for “QVQLVESGGGLVQAGGIHRLSCPASGIIFYYYAMGWYRHAPGKESELVAAISWSGGSTYYADSVKGRFTISRDNAKYTVYLQMNSLKPEDTAVYYCAAAFSPGWWSRHTYDYDYWVQGTQVTVSS”: “high polyreactivity”; for “QVQLVESGGGLVQAGGSLLLSCAASGSIFFYAMGSYRQAPGKERELVADITYTGGSKYADSVKGRFTISRDNAKNTVYLQMNSLKPEDTAVYYCAKLDGGLFDYWGQGTQVTVSS”: “low polyreactivity”.
Regarding “QVQLVESGGGLVQAGGSLRLSCAASGSTFQGNAMGWYRQAPGKERELVAAISSDGSTDYADSVKGRFTISRDNAKNTVYLQMNSLKPEDTAVYYCNRVSPGPDADLEFDYWGQGTQVTVSS”, the “polyreactivity (PSR sort gate)” value is listed as “low polyreactivity”.
As for “QVHLVESGGGLVQAGGSLRLSCAASGIIFHYYAMGWYRQAPGKERALVATMTSGGSTYYADSVKGRFTISRDNAKNTVYLQMNSLKPEDSAVYYCAATYGGSVFEYDYWGQGTQVTVSS”, the “polyreactivity (PSR sort gate)” value is “low polyreactivity”.
As to “QVQLVESGGGLVQAGGSLRLSCAASGRIFAQNAMGWYRPAPGKERELVAAISWGGGGTYYADSVKGRFTISRDNAKNTVYLQMNSLKPEDTAVYYCAADSPGFGAWDRYEYWGQGTQVTVSS”, the “polyreactivity (PSR sort gate)” value is given as “low polyreactivity”.
As for “QVQLVESGGGLVQAGGSLRLSCAASGFIFYIYAMGWYRQAPGKERELVAAISWNGGSTYYADSVKGRFTISRDNAKNTVYLLMNSLKPEDTAVYYCATVARYRYGTGRFDYWGQGTQVTVSS”, the “polyreactivity (PSR sort gate)” value is reported as “high polyreactivity”.
In the case of “QVQLVESGGGLVQAGGSLRLSCAASGFTFETYVMGWYRQAPGKERELVAAISRRGGSTYYADSVKGRFTISRDNAKNTVYLQMNSLKPEDTAVYYCGKDGGWSRLHYNYWGQGTQVTVSS”, the “polyreactivity (PSR sort gate)” value is recorded as “high polyreactivity”.
For “QFQLVESGGGLLQAGGSLRLSCAASGFTFSYNAKGWYRKAPGKERELVAAISSSGGSTYYADSVKGRFTISRDNAKNTVYLQMNILKPEDPSVYYCAVPYLTLYGRSYDYWGQGTQVTVSS” the value was “high polyreactivity”; for “QVQLVESGGGLVQAGGSLRLSCAASGRIFQSYAMGWYRQAPGKERELVAGINSDTSTNYADSVKGRFTISRDNAKNTVYLQMNSLKPEDTAVYYCNAGWDTYYWQSTEFDYWGQGSQVTVSS”, “low polyreactivity”; for “QVQLVESGGGLVQAGGSLRLSCAASGLIFRSYAMGWYRQAPGKERELVARISIRGGSTYYADSVKGRFTISRDNAKNTVYLQLNSLKPEVTAVYYCAAVGYFGGYRYDYWGHGTQVTVSS”, “high polyreactivity”.
“QVQLVESGGGLVQAGGSLRLSCAASGGIFDANAMGWYRQAPGKERELVAAISSGGITKYADSVKGRFTISRDNAKNTVYLQMNSLKPEDTAVYYCAASWYRYRFIRYDYWGQGTQVTVSS”: the “polyreactivity (PSR sort gate)” value is reported as “high polyreactivity”.
The same measure for “QVQLVESRGVLDQARGSLRLSCAATGSIFKPYAMGWYRQEPGKEMELVAAISGIGGSTYYADSVKGRFTIARDNAKNTVYLQMNSLKPEVTAVYYCAALTGFYNLRPYGYWGQGTQVTVSS”: “high polyreactivity”; for “QVQLEESGGGLVQAGGSLSLSCAASGSNFVYNAMGWYRQAPGKERELVAVINSGGSTNYADSVKGRFTISRDNAKNTVYIQKNSRKPEDTAVYYCAADRLAVHYYSWYNYWGQGTQVTVSS”: “low polyreactivity”.
For “QVQLVESGGGLVQAGGTLRLSCAASGYTFGVYFMGWYRHAPGKERELVAAISGSTYYADSVKGRFTISRDNAKNTVYLQMNSLKQEDTAVYYCAAESYFFSPRTREKFDYWGQGTQVTVSS”, the “polyreactivity (PSR sort gate)” value was “low polyreactivity”.
The same measure for “QVQLVESGGGLVQAGGSLRLSCAASGSTFIRYTMGWYRQAPGKERELVAAISTGGTNYADSVKGRFTISRDNAKNTVYLQMYSLKPGDTAVYYCAKPSSPSLGGVSDRIYWGQGTQVTVSS”: “low polyreactivity”.
With “QVQLVESGGGLVQAGGSLRLSCAASGLIFYRNAMGWYRQAPGKERELVAAISKNGGNTYYADSVKGRFTISRDNAKNTVFLQMNSLKTEDTAVYYCAARELYGPFGYWGQGTQVTVSS”, the “polyreactivity (PSR sort gate)” value is “high polyreactivity”.
The same measure for “QVQLEESGGGLRQAGGRLRLSCAASGRTFYVNAKGWYRQAPGKERELVAAISWSGGSTYYADSVKGRFTITRDNAKNTVYLQMNSLKPEDTAVYYCAAEDIEVYEYWGQGTQVTVSS”: “low polyreactivity”; for “QVQLVESGGGLVQAGGSLRLSCAASGSTFGGYAMGRYRQAPGKERELVAAISQSGTRTYYADSVKGRFTISRDNAKYTVYLQMNSLKPEDTAVYYCAARRLYYHPTLYYWGQGTQVTVSS”: “high polyreactivity”; for “QVQLEESGGGLVQAGGSLRLSCAASGSIFEGNGMGWYRPAPGKERELVAAITFRSGSTYYADSVKGRFTISRDNAKNTVYLQMNSLKPEDTAVYYCAADEYYKVSAYDFWGQGTQVTVSS”: “low polyreactivity”.
Take “QLQLVESGRGLVQAGGSLRLSCAGSGFIVGYNAMGSYRQAPGKDRELVAAISSGGSTYYADSVKGRFTISRVNAKNTVYLQMNSLKPEDTAVYYCAVELGYPIQSYALWWDFEYWGQGTQVTVSS”: the “polyreactivity (PSR sort gate)” value was “low polyreactivity”.
The same measure for “QVQHVESGGGLVQAGGSLRLICAASGSTFRGYAMGWYRPAPGKERELVAAITSSGGSTYYADSVKGRFTISRDNAKNTVYLQMNSLKPEDTAVYSCAAASRRFGLYGYWGQGTQVTVSS”: “high polyreactivity”; for “QDQLVESGGGLVQAGGSLRLICAASGRTFWAYAMGWYRQAPGKERELVAAISVSGGRTYYADSVKGRFTISRDNAKNTVYLQMNSLKPEDTAVYYCNKRYLKSYEYYWGQGTHVTVSS”: “high polyreactivity”.
“QVQLVESGGGIVQAGGSLRLSCDASGRIIGYYAMGWYRQAPGKERELVAAISRSGARTYYADSVKGRFTISRDNAKNTVYLQMNSLKPEDTAVYYCAAGPAPGHDSWGQGTQVTVSS”: the “polyreactivity (PSR sort gate)” value is recorded as “high polyreactivity”.
“QVQLVESVGGLVQAGGSLRLICAASGSIFYPNAMGWYRQAPGKERELVAAISYSGTSTNYADSVKGRFTISRDNAKNTVYLQMNSLKPEDTAVYYCAARGFPHRRHSLYDYWGQGTQVTVSS”: the “polyreactivity (PSR sort gate)” value was “low polyreactivity”.

These data come from the nanobody polyreactivity screen of Harvey et al. (2022).
